# Laboratory results from patent US20190106510A1 (CELLDEX THERAPEUTICS, published 2019).
# T1: murine KIT (murine, UniProt P05532 25-527, limits assumed)
# T1 sequence (looked up): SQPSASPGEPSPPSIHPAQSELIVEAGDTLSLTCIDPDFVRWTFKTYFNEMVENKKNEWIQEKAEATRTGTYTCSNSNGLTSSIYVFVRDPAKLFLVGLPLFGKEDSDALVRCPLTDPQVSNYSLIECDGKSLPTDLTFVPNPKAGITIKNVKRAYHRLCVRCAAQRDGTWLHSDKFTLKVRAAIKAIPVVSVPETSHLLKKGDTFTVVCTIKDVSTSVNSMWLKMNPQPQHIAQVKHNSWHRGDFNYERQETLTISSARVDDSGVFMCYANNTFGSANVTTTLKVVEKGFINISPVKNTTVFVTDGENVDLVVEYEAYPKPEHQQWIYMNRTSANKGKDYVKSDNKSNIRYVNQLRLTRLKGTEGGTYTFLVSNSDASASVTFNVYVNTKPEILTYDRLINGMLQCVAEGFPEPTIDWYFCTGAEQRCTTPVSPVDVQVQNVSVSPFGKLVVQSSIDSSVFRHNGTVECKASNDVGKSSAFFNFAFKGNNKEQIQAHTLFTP
# Tests used:
# [1] = target: T2, full-length, wild-type human KIT expressed on CHO cells (human, UniProt P10721 26-976); test: cell-based or functional assay
# T2 sequence (P10721 other isoform, or with tags, fused parts or gaps limits assumed): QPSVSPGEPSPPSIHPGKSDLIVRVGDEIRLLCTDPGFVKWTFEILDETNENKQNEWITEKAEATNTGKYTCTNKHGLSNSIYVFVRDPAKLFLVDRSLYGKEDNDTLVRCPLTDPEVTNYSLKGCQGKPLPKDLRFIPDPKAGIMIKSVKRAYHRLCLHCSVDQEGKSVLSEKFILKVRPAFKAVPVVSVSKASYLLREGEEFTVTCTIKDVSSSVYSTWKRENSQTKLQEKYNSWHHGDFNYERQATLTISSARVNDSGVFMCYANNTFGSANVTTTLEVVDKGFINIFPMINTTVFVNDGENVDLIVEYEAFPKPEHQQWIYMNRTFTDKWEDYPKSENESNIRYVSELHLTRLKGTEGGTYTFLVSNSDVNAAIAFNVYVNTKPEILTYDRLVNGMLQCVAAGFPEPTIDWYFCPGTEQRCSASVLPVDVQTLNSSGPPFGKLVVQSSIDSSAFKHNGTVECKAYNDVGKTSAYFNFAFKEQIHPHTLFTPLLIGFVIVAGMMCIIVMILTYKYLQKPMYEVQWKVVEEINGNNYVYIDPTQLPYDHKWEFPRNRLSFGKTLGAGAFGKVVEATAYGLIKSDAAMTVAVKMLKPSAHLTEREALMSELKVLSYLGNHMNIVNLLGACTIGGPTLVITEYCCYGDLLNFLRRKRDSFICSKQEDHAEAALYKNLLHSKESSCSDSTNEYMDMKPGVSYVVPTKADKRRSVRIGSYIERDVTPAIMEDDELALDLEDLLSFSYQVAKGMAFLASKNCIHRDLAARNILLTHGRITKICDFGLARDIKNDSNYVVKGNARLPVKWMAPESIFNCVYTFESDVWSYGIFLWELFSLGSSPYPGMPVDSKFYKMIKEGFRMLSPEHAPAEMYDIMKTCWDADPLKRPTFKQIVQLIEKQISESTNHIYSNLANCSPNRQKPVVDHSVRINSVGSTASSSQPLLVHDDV
# [2] = target: T3, recombinant KIT D4/D5 (human, UniProt P10721 26-519); test: direct binding ELISA, plate-coated recombinant KIT D4/D5; assay #1 (supernatant), mean of 4 replicates
# T3 construct: also called recombinant c-Kit Ig-like domains D4/D5; recombinant polypeptide of the D4/D5 region of human KIT
# T3 sequence (P10721 other isoform, or with tags, fused parts or gaps limits assumed): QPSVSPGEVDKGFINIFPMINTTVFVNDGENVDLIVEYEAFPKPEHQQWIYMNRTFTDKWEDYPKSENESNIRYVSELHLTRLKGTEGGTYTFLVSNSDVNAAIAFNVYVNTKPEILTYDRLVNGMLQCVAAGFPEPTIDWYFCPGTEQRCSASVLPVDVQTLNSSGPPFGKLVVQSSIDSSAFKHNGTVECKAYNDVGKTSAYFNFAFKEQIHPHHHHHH
# Method: (§1) The binding affinity of the anti-KIT antibodies to the target antigen KIT Ig-like domains D4/D5 was assessed by direct binding ELISA. […] Bound antibody was detected with anti-human Ig-HRP followed by detection using TMB substrate.
# [3] = target: T3, recombinant KIT D4/D5; test: direct binding ELISA, plate-coated recombinant KIT D4/D5; assay #3 (purified), mean of 2 replicates
# Method: as §1
# [4] = target: T3, recombinant KIT D4/D5; test: direct binding ELISA, plate-coated recombinant KIT D4/D5; assay #2 (supernatant), mean of 5 replicates
# Method: as §1
# [5] = target: T2, full-length, wild-type human KIT …; test: flow cytometry on CHO cells expressing full-length wild-type human KIT (FIG. 6)
# Method: Briefly, parental CHO cells and CHO/KIT-WT cells were washed and incubated with 0.01 nM, 0.1 nM, 1 nM or 10 nM of a chimeric (human-mouse) 37M antibody, antibody Hum17, Hum8, Hum4, or Hum10, a negative control isotype IgG antibody, or a commercial anti-KIT antibody as a positive control. The samples were processed for flow cytometry analysis. More specifically, cells were removed from the culture flasks using EDTA, and washed with PBS. Then, the cells were resuspended in media and counted. Each sample containing approximately 200,000 to 250,000 cells was spun, the media was removed, and the cells were resuspended in FC buffer (1% BSA, 0.01% sodium azide in 1×PBS) for the blocking step. The cells were incubated in FC buffer for 1 hour on ice. Then, primary antibody (e.g., a chimeric (human-mouse) 37M antibody, Hum17, Hum8, Hum4, Hum10, positive control anti-KIT antibody, or negative control antibody) was added to the cells in FC buffer as described above. The samples were mixed and incubated on ice for 1 hour, followed by washing the cells with 0.5-1 mL FC buffer. The FC buffer was removed by spinning the cells at 1200 rpm for 3 minutes at 4° C., decanting the liquid. The cell pellets were resuspended in 200 μL FC buffer, and secondary antibody (DyLight 488 AffiniPure Goat Anti-Mouse IgG Jackson Laboratories) was added to the cells at a 1:1000 to 1:2000 dilution. The samples were mixed and incubated on ice for 1 hour, and then washed as described above. The samples were run on a fluorescence activated cell sorter (FACS) machine (Accuri FlowCytometer C6). Samples were analyzed by following channel FLA-1 for DyLight-conjugated samples.
# [6] = target: T3, recombinant KIT D4/D5; test: direct binding ELISA, plate-coated recombinant KIT D4/D5; assay #4 (purified), 1 replicate
# Method: as §1
# [7] = target: T3, recombinant KIT D4/D5; test: solid phase ELISA, plate-adsorbed recombinant D4/D5 region of human KIT (FIG. 5)
# Method: Recombinant antigen corresponding to the D4/D5 region of the KIT extracellular domain (see FIG. 2) was absorbed onto 96-well microtiter plates. In particular, recombinant antigen (5 μg) were diluted into 10 mL of borate buffer, and 100 μL of the antigen solution were added to each well of a 96 well plate and were incubated at 4° C. overnight.
# ELISA: Following one rinse with TBS-T, blocking buffer (200 μL) was added to each well of the plate with the adsorbed antigen and was incubate at room temperature for one hour. Then, the blocking buffer was removed, and the serially diluted solutions of test antibodies and controls were added to the plate in a volume of 50 μL and incubated at room temperature for one hour. The antibody solutions were removed, and the plate was washed three times with 100 μL of wash buffer on a plate washer. After the last wash, the plate was blotted dry. Secondary antibody solution was diluted 1:8000 and was added to each well in a volume of 100 μL and allowed to incubate for one hour at room temperature. The diluted secondary antibody solution was removed, and the plate was washed three times with 100 μL of wash buffer on a plate washer. Then, freshly mixed TMB substrate solution was added to each well in a volume of 100 μL and was allowed to incubate at room temperature for 30 minutes. Subsequently, 100 μL of 2N H₂SO₄ were added to each well and immediately read on the plate reader. An irrelevant antibody served as the negative control, and an anti-KIT antibody against the D4 and/or D5 domain of the extracellular region of KIT served as the positive control. OD values for each sample were obtained at a wavelength of 450 nm.
# Results were analyzed using Graph Pad Prism and Excel to obtain the concentration of antibodies at 50% binding to antigen.
# [8] = target: T1, murine KIT; test: additional binding assays (format not described)
# [9] = target: T3, recombinant KIT D4/D5; test: direct binding ELISA, plate-coated recombinant KIT D4/D5; assay #2 (supernatant)
# Method: as §1
# [10] = target: T3, recombinant KIT D4/D5; test: direct binding ELISA, plate-coated recombinant KIT D4/D5; assay #4 (purified)
# Method: as §1
# [11] = target: T2, full-length, wild-type human KIT …; test: cell-based or functional assay; remark: listed apart in the source
# [12] = target: T3, recombinant KIT D4/D5; test: direct binding ELISA, plate-coated recombinant KIT D4/D5; assay #1 (supernatant)
# Method: as §1
# [13] = target: T3, recombinant KIT D4/D5; test: direct binding ELISA, plate-coated recombinant KIT D4/D5; assay #3 (purified)
# Method: as §1
Binder,"50% inhibition concentration (IC50), SCF-induced KIT tyrosine phosphorylation, cell-based phospho-KIT ELISA [1]",EC50 [2],EC50 [3],EC50 [4],EC50 [5],EC50 [6],EC50 [7],binding result [8],Relative binding activity [9],Relative binding activity [10],"Relative blocking activity, assay #3 (96-well): IC50 of inhibition of SCF-induced KIT phosphorylation, normalized to chimeric 37M antibody [11]","Relative blocking activity, assay #4 (96-well): IC50 of inhibition of SCF-induced KIT phosphorylation, normalized to chimeric 37M antibody [11]",Relative binding activity [12],Relative binding activity [13],"Relative blocking activity, assay #2 (24-well): IC50 of inhibition of SCF-induced KIT phosphorylation, normalized to chimeric 37M antibody [11]"
"chimeric antibody 37C (antibody, V domains shown, also called chimera of antibody 37M; chimera) VH: QVQLKQSGAELVRPGASVKLSCKASGYTFTDYYINWVKQRPGQGLEWIARIYPGSGNTYYNEKFKGKATLTAEKSSSTAYMQLSSLTSEDSAVYFCARGVYYFDYWGQGTTLTVSA VL: DIVMTQSQKFMSTSVGDRVSVTCKASQNVRTNVAWYQQKPGQSPKALIYSASYRYSGVPDRFTGSGSGTDFTLTISNVQSEDLADYFCQQYNSYPRTFGGGTKLEIK",~344 pM,381 pM,462 pM,412 pM,~47 pM,568 pM,~12 pM,,,,,,,,
"Hum8 (antibody, V domains shown) VH: QVQLVQSGAEVKKPGASVKLSCKASGYTFTDYYINWVRQAPGKGLEWIARIYPGSGNTYYNEKFKGRATLTADKSTSTAYMQLSSLRSEDTAVYFCARGVYYFDYWGQGTTVTVSS VL: DIVMTQSPSSLSASVGDRVTITCKASQNVRTNVAWYQQKPGKAPKALIYSASYRYSGVPDRFTGSGSGTDFTLTISSLQPEDFADYFCQQYNSYPRTFGGGTKVEIK",~542 pM,,,,~83 pM,,~11 pM,no binding,0.62 relative to chimeric antibody 37C (normalized EC50),0.75 relative to chimeric antibody 37C (normalized EC50),1.01 relative to chimeric 37M antibody,1.12 relative to chimeric 37M antibody,1.02 relative to chimeric antibody 37C (normalized EC50),0.89 relative to chimeric antibody 37C (normalized EC50),
"Hum10 (antibody, V domains shown) VH: QVQLVQSGAEVKKPGASVKVSCKASGYTFTDYYINWVRQAPGKGLEWIARIYPGSGNTYYNEKFKGRVTITADKSTSTAYMELSSLRSEDTAVYFCARGVYYFDYWGQGTTVTVSS VL: DIVMTQSPSSLSASVGDRVTITCKASQNVRTNVAWYQQKPGKAPKALIYSASYRYSGVPDRFTGSGSGTDFTLTISSLQPEDFADYFCQQYNSYPRTFGGGTKVEIK",~510 pM,,,,~132 pM,,~23 pM,no binding,0.88 relative to chimeric antibody 37C (normalized EC50),0.72 relative to chimeric antibody 37C (normalized EC50),,0.86 relative to chimeric 37M antibody,1.1 relative to chimeric antibody 37C (normalized EC50),0.87 relative to chimeric antibody 37C (normalized EC50),0.82 relative to chimeric 37M antibody

# The remaining binders from weak to strong by EC50 [5], led by results:
"50% inhibition concentration (IC50), SCF-induced KIT tyrosine phosphorylation, cell-based phospho-KIT ELISA [1]",EC50 [2],EC50 [3],EC50 [4],EC50 [5],EC50 [6],EC50 [7],binding result [8],Relative binding activity [9],Relative binding activity [10],"Relative blocking activity, assay #3 (96-well): IC50 of inhibition of SCF-induced KIT phosphorylation, normalized to chimeric 37M antibody [11]","Relative blocking activity, assay #4 (96-well): IC50 of inhibition of SCF-induced KIT phosphorylation, normalized to chimeric 37M antibody [11]",Relative binding activity [12],Relative binding activity [13],"Relative blocking activity, assay #2 (24-well): IC50 of inhibition of SCF-induced KIT phosphorylation, normalized to chimeric 37M antibody [11]",Binder
~510 pM,,,,~139 pM,,~6.6 pM,no binding,0.76 relative to chimeric antibody 37C (normalized EC50),0.72 relative to chimeric antibody 37C (normalized EC50),,1.07 relative to chimeric 37M antibody,1.17 relative to chimeric antibody 37C (normalized EC50),0.98 relative to chimeric antibody 37C (normalized EC50),1.39 relative to chimeric 37M antibody,"Hum17 (antibody, V domains shown) VH: QVQLVQSGAEVKKPGASVKLSCKASGYTFTDYYINWVKQAPGKGLEWIARIYPGSGNTYYNEKFKGRATLTAEKSTSTAYMQLSSLRSEDTAVYFCARGVYYFDYWGQGTTVTVSS VL: DIVMTQSPSSLSASVGDRVTITCKASQNVRTNVAWYQQKPGKAPKSLIYSASYRYSGVPDRFSGSGSGTDFTLTISSLQPEDFATYYCQQYNSYPRTFGGGTKVEIK"
~470 pM,,,,~106 pM,,~7.5 pM,no binding,0.91 relative to chimeric antibody 37C (normalized EC50),0.83 relative to chimeric antibody 37C (normalized EC50),,0.86 relative to chimeric 37M antibody,,1.07 relative to chimeric antibody 37C (normalized EC50),1.2 relative to chimeric 37M antibody,"Hum4 (antibody, V domains shown) VH: QVQLVQSGAEVKKPGASVKVSCKASGYTFTDYYINWVRQAPGKGLEWIARIYPGSGNTYYNEKFKGRATITADKSTSTAYMELSSLRSEDTAVYFCARGVYYFDYWGQGTTVTVSS VL: DIVMTQSPSFLSASVGDRVTITCKASQNVRTNVAWYQQKPGKAPKALIYSASYRYSGVPDRFTGSGSGTDFTLTISSLQSEDFADYFCQQYNSYPRTFGGGTKVEIK"
